The source of these data is the supplement of paper PMC9170038.

This data set has as its system MS2 coat protein. Briefly: apparent KD of MS2 coat protein; higher = weaker reporter binding. The settings on record: Eterna round: R107. On the procedure:
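RNA-MaP round R107: designed RNA switches with theophylline, tryptophan, arginine or FMN aptamers are transcribed on-chip within common flanks. They are titrated with SNAP-549-labelled MS2 coat protein in RNA-MaP buffer (100 mM Tris pH 7.5, 80 mM KCl, 4 mM MgCl2), without ligand or with the indicated ligand. Median apparent KD per design.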

The mark [1] stands for this setting: input ligand: theophylline 20 uM.
The mark [2] stands for this setting: input ligand: tryptophan 2.4 mM.
Setting [3] is: input ligand: theophylline 2 mM.

In the case of “ACCUACACGGAGACGUGUAGGAGUAAUGAUACCAGCAUGGAGACAUGCCCUUGGCAGCGUUACAUGAGGAUCACCCAUGUACGUU [ETHA #3]”, the “apparent KD of MS2 coat protein” value reads like this: (input ligand: arginine 13.2 mM) 10.4 nM; under setting [1], 15.1 nM; under setting [2], 10.2 nM.
As for “ACCUGCGUUUGUUUCUUUCUGACGCAGGUUCGAGGACCGGUACGGCCGCCACUCGGACAUGAGGAUCACCCAUGUUUGAAAUGGG [#01 Exclusion Tryptophan A]”, the “apparent KD of MS2 coat protein” value is, setting by setting: (input ligand: arginine 13.2 mM) 90.4 nM; under setting [1], 248 nM; under setting [3], 313 nM.
With “ACGACAUGAGGAUCACCCAUGUACUCUGAAGGAGCGUCGAUUACGACAGGUAGGUCGCAGGCUAAGGAUGGUGAUGCUCAAGACG [Exclusion Arginine A GF8]”, the “apparent KD of MS2 coat protein” value is, setting by setting: (input ligand: arginine 13.2 mM) 53.5 nM; (input ligand: none) 87.7 nM; under setting [1], 90.4 nM; under setting [3], 114 nM; under setting [2], 57.8 nM.
“ACGACGCAUAGUGAUACCAGUAGAACAUGAGGAUCACCCAUGUCUGUGACGCACCACCUCUGCCCUUGGCAGCACUAUGCGUCAG [SSTheo B #8]”: the “apparent KD of MS2 coat protein” value (input ligand: arginine 13.2 mM) was found to be 22.3 nM, the “apparent KD of MS2 coat protein” value under setting [1] was 30.3 nM and the “apparent KD of MS2 coat protein” value under setting [2] was found to be 23 nM.
Turning to “ACGAUAGCACCUGAGGAUCACCCAGGUGAUACCAGCCUGGAAACAGGCCCUUGGCAGCACCUAAAAUAAAGGUAACUAUCGAAUA [TheoAX6 #MicroSwitchBubble #AlternativeMS2]”, the “apparent KD of MS2 coat protein” value came out at 57.3 nM (input ligand: arginine 13.2 mM); 50.6 nM (input ligand: none); 251 nM under setting [1]; 105 nM under setting [3]; 48.6 nM under setting [2].
With “ACGAUAGGACUUGAGGAUCACCCAGGUGAUACCAGCCUGGAAACAGGCCCUUGGCAGCACUAAUACUCCAAUAACCUAUCGAAUA [TheoAX 16 #MicroSwitchBubble #AlternativeMS2]”, the “apparent KD of MS2 coat protein” value by setting is: (input ligand: arginine 13.2 mM) 341 nM; (input ligand: none) 195 nM; under setting [1], 347 nM; under setting [3], 417 nM; under setting [2], 332 nM.
For “ACGCUGAUUGAUUACAAUCAGCGAAAAGAUACCAGUGGGUAAUCCCACCCUUGGCAGCUUAAACUUGAGGAUCACCCAGGUGGUA [TheoAS 17 #MS2Right #BothOrNeither #AlternativeMS2]”, the “apparent KD of MS2 coat protein” value is 88.2 nM (input ligand: arginine 13.2 mM); 238 nM (input ligand: none); 419 nM under setting [1]; 439 nM under setting [3]; 630 nM under setting [2].
Consider “ACGCUGCAUAGGAAAACUAUGUAGCGAAAUCGAGGACCGGUACGGCCGCCACUCGUCCUCAACAUGAGGAUCACCCAUGUAAUAA [Mat - Exclusion - Trytophan A - D8]”, for which the “apparent KD of MS2 coat protein” value came out at 20.8 nM (input ligand: arginine 13.2 mM), 23.7 nM under setting [1] and 22.8 nM under setting [3].
As for “ACGUCCGGUUUACUCGUGGGCAUGGUCGAUACCAGUAUUUUAAUCUACCCUUGGCAGCGACAUGAGGAUCACCCAUGUGCGAAGA [XTheo A #21]”, the “apparent KD of MS2 coat protein” value was determined as 21.5 nM (input ligand: arginine 13.2 mM), 30.6 nM under setting [1] and 22.8 nM under setting [2].
“ACUAGUUGUGCAGAUACCAGACAUGAGGAUCACCCAUGUUUGGGAUCUAAUGAUCAUCCUGUCCCUUGGCAGCUGUACAUCUAGA [Omei Theo B Exc v2]”: the “apparent KD of MS2 coat protein” value is 51.9 nM (input ligand: arginine 13.2 mM), 234 nM under setting [1] and 89.9 nM under setting [2].
In the case of “ACUAGUUGUGCAGAUACCAGACAUGAGGAUCACCCAUGUUUGGGAUCUAAUGAUCAUCUUGUCCCUUGGCAGCUGUACAUCUAGA [Omei Theo B Exc v1]”, the “apparent KD of MS2 coat protein” value by setting is: (input ligand: arginine 13.2 mM) 27.1 nM; under setting [1], 72.6 nM; under setting [2], 55.5 nM.
Take “AGAAUAUAAUAUAUCAAAGGUAUAACCGAAGGAGCGCCGAAUAAGGCAGGUAGGUCGCGGAAACAUGAGGAUCACCCAUGUCCAU [Arginine A Same State; Euphoria Solution 2]”: the “apparent KD of MS2 coat protein” value by setting is: (input ligand: arginine 13.2 mM) 19 nM; (input ligand: none) 19.1 nM; under setting [1], 23.6 nM; under setting [3], 16.6 nM; under setting [2], 18.7 nM.
Take “AGACAUGAGGAUCACCCAUGUGAAGUGGAUACCAGCCGCAGCGAUGGCCCUUGGCAGCCAGCUUUGUGUCGAUACAUCCGCACUU [theeternabot_exclusion_MS2_Theo_A_2]”: the “apparent KD of MS2 coat protein” value reads like this: (input ligand: arginine 13.2 mM) 16.9 nM; under setting [1], 22.9 nM; under setting [2], 18.1 nM.
For “AGACGAGAAGAGGUUUACCCAUGUACAGAAGGAGCGUCGUUGACGACAGGUAGGUCGCUGGAAACAUGAGGAUCACCCAUGUUGA [#06 Exclusion - Arginine A]”, the “apparent KD of MS2 coat protein” value reads like this: (input ligand: arginine 13.2 mM) 27.4 nM; (input ligand: none) 40.8 nM; under setting [1], 49.1 nM; under setting [3], 59.7 nM; under setting [2], 48.3 nM.
For “AGACUGUAAAGUCUACCGGUCAACAAUAAUCGAGGACCGGUACGGCCGCCACUCGAUGUGAUAUACACAUGAGGAUCACCCAUGU [Tryptophan A 16]”, the “apparent KD of MS2 coat protein” value by setting is: (input ligand: arginine 13.2 mM) 17.2 nM; under setting [1], 22.6 nM; under setting [3], 19.7 nM.
Take “AGAGUCAGACAAAAGUCUGGCUCAGCCGAAGGAGCGUCCGAAAGGACAGGUAGGUCGCGGUUACUUGAGGAUCACCCAAGUUCCU [ArgAS 26 #OpenEnded #AlternativeMS2]”: the “apparent KD of MS2 coat protein” value reads like this: (input ligand: arginine 13.2 mM) 69 nM; (input ligand: none) 163 nM; under setting [1], 151 nM; under setting [3], 177 nM; under setting [2], 144 nM.
In the case of “AGAUAACAUGGUUUAAUAAGUUAAACUGAUACCAGUGUAUAUAAUCACCCUUGGCAGCAGCAACAUGAGGAUCACCCAUGUAAUA [JR_SSTheophyA_Sub013]”, the “apparent KD of MS2 coat protein” value is, setting by setting: (input ligand: arginine 13.2 mM) 16.2 nM; under setting [1], 19.9 nM; under setting [2], 19.6 nM.
On to “AGCACUGUGACGGCCGCCACUACAUAUAGGGUGGUCAGGCCCAUAAUACAUGAGGAUCACCCAUGUAGGACCGGGUCUCAGUGCA [Omei Trp Exc B A v12]”, for which the “apparent KD of MS2 coat protein” value runs as follows: (input ligand: arginine 13.2 mM) 11.7 nM; under setting [1], 25.4 nM; under setting [3], 18.3 nM.
“AGCCACUCGAGUGAUCCUCACGAGUGGCUACGAGGACCGGUACGGCCGCCACUCGAAUUAACAUGAGGAUCACCCAUGUAAUCAU [Brourdmod04]”: the “apparent KD of MS2 coat protein” value runs as follows: (input ligand: arginine 13.2 mM) 97.8 nM; under setting [1], 259 nM; under setting [3], 317 nM.
